Positions count from the first letter of the chain named.

Experiment [1] deals with T1, AF9 YEATS domain (1-138) (human, UniProt P42568 1-138).
T1 sequence (looked up): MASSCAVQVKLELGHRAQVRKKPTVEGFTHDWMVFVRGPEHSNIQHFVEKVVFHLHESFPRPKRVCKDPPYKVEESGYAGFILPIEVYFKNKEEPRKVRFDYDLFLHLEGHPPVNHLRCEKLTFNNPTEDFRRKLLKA
The experiment is described as follows: ITC. Background: In ITC the heat of successive injections is recorded.

The target in experiment [2] is T2, AF9-F28R YEATS domain (1-138) (human, UniProt P42568 1-138, F28R).
T2 sequence (looked up): T1 sequence (looked up) with F28R
The experiment can be described thus: crystal structure.

Experiment [3] deals with T3, AF9 YEATS domain F59Y (human, UniProt P42568 1-138, F59Y).
T3 sequence (looked up): T1 sequence (looked up) with F59Y
The experiment is described as follows: ITC.

In general, Kd refers to the equilibrium constant for the complex coming apart. In experiment [1], H3K9ac peptide (ITC) came in with a Kd of 4.6 µM. This counts as single-digit micromolar.

As for H3K18la peptide, in experiment [1], the Kd worked out at 172 µM.

As for ARTKQTARKS (peptide, UniProt P68431 2-11, looked up, lactyl-lysine (L-lactylation) at K9) [H3_(1-10)K9la peptide], in experiment [2], the binding result is “binds”.

In the case of ARTKQTARKS (lactyl-lysine (L-lactylation) at K9) [H3K9la peptide (ITC)], the “fold reduction of affinity against WT AF9 YEATS” value in experiment [3] was found to be 2 fold. Binding in experiment [1] was put at a Kd of 74.4 µM.

The values are drawn from publication doi:10.1101/2025.06.18.660498 (bioRxiv, 2025).
